Results published in patent publication US20240238420A1 (WUHAN UNIVERSITY, published 2024).

Legend:
[1] = biological target: CD123 combined mutant R84Q-V85I (Homo sapiens (Human)) (UniProt P26951); assay: scFv-luciferase binding to transfected HEK 293T cells (FIG. 4A)
[2] = biological target: CD123 combined mutant R84Q-V85M (Homo sapiens (Human)) (UniProt P26951); assay: as above
wild-type CD123 protein = biological target: T1, wild-type CD123 protein (Homo sapiens (Human), UniProt P26951 19-378); assay: scFv-luciferase binding to HEK 293T cells transfected with wildtype or mutant CD123
T1 construct: no signal peptide limits are stated; also called alpha chain of interleukin-3 receptor
Experimental: HEK 293T cells were transfected with wildtype or indicated CD123 mutant and then incubated with anti-CD123 scFv-luciferase fusion proteins. (B) Western blot of CD123 expression. HEK293T cells were transfected with flag tagged wild-type or indicated CD123 mutants.
HEK 293T cells were transfected with wildtype or indicated CD123 mutant and then incubated with anti-CD123 scFv-luciferase fusion proteins. […] The expression of these mutants was confirmed by Western blot (FIG. 3B).

wild-type CD33 protein = biological target: T2, wild-type CD33 protein (Homo sapiens (Human), UniProt P20138 18-364); assay: scFv-luciferase binding to HEK 293T cells transfected with wildtype or mutant CD33 (RLU)
T2 construct: Expressed in transfected HEK 293T cells; A flag tag is mentioned for the Western blot constructs; no signal peptide limits are stated; also called Siglec3
Experimental: FIG. 1A-D. Determination of epitopes of CD33 that mediate the interaction by anti-CD33 scFv clone my9.6 or HM195. (A) Binding affinity of indicated CD33 mutations with anti-CD33 scFV clone my9.6. HEK 293T cells were transfected with wildtype or indicated CD33 mutant and then incubated with anti-CD33 scFV-luciferase fusion proteins, RLU: relative luminescence units. (B) Western blot of CD33 expression. HEK293T cells were transfected with flag tagged wild-type or indicated CD33 mutants. (C) Binding affinity of additional CD33 mutations. RLU: relative luminescence units (D) Western blot of CD33 expression. HEK293T cells were transfected with flag tagged wild-type or indicated CD33 mutants.
HEK 293T cells were transfected with wildtype or certain CD33 mutants and then incubated with anti-CD33 scFV-luciferase fusion proteins. The mutated residues included W22, C41, W60, I105, D112, Y116, F118, S131, and P132. The tested antibodies included my9.6 and HM195. […] FIGS. 1B and […] present Western blot images of CD33 expression from the transfected cells.

CD123 combined mutant R84Q-V85M (Homo sapiens (Human)), sequence (P26951 19-378 R84Q/V85M limits assumed): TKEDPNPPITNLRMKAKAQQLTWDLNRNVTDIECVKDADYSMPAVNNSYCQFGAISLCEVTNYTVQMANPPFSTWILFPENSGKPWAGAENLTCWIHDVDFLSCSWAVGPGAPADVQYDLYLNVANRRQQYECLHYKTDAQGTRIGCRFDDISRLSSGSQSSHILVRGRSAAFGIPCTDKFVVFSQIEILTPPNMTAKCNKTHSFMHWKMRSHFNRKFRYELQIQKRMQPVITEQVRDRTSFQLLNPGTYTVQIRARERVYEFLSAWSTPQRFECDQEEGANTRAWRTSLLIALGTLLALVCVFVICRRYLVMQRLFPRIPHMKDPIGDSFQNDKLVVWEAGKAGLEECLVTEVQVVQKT
CD123 combined mutant R84Q-V85I (Homo sapiens (Human)), sequence (P26951 19-378 R84Q/V85I limits assumed): as the sequence (P26951 19-378 R84Q/V85M limits assumed) above, with M67I counted along it
T1 sequence (P26951 19-378 limits assumed): as the sequence (P26951 19-378 R84Q/V85M limits assumed) above, with Q66R, M67V counted along it
T2 sequence (P20138 18-364 limits assumed): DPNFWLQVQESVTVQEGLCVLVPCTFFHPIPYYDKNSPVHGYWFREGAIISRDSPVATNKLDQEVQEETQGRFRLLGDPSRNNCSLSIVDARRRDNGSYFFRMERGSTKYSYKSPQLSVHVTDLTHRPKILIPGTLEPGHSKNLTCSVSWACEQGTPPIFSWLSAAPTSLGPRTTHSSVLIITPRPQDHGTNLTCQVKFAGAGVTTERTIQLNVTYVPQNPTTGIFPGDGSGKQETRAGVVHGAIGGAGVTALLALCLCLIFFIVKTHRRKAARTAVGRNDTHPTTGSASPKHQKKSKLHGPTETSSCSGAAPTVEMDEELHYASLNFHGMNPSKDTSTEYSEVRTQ

Which results are given for “anti-CD123 scFv clone CSL362, scFv-luciferase fusion protein”?
fold decrease of affinity (combined mutant against reference) [1]: 100 fold; fold decrease of affinity (combined mutant against reference) [2]: 100 fold

B1: anti-CD123 scFv clone 32716, scFv-luciferase fusion protein (scFv, V domains shown)
VH: QIQLVQSGPELKKPGETVKISCKASGYIFTNYGMNWVKQAPGKSFKWMGWINTYTGESTYSADFKGRFAFSLETSASTAYLHINDLKNEDTATYFCARSGGYDPMDYWGQGTSVTVSS
VL: DIVLTQSPASLAVSLGQRATISCRASESVDNYGNTFMHWYQQKPGQPPKLLIYRASNLESGIPARFSGSGSRTDFTLTINPVEADDVATYYCQQSNEDPPTFGAGTKLELK
Does B1 bind (wild-type CD123 protein)?
Result: binds

B2: anti-CD33 scFv clone HM195, scFv-luciferase fusion protein (scFv, V domains shown)
VH: QVQLVQSGAEVKKPGSSVKVSCKASGYTFTDYNMHWVRQAPGQGLEWIGYIYPYNGGTGYNQKFKSKATITADESTNTAYMELSSLRSEDTAVYYCARGRPAMDYWGQGTLVTVSS
VL: DIQMTQSPSSLSASVGDRVTITCRASESVDNYGISFMNWFQQKPGKAPKLLIYAASNQGSGVPSRFSGSGSGTDFTLTISSLQPDDFATYYCQQSKEVPWTFGQGTKVEIK
notes: Tested as an scFv-luciferase fusion protein
Does B2 bind (wild-type CD33 protein)?
Result: binds
